This assay deals with recombinant extracellular region of human calsyntenin-1 (residues 29-859) (human) (UniProt O94985). As to the kind of experiment: SPR.

In general, Kd refers to the constant that tells how readily two partners part at equilibrium.

UniProt O94985, sequence (O94985 29-859): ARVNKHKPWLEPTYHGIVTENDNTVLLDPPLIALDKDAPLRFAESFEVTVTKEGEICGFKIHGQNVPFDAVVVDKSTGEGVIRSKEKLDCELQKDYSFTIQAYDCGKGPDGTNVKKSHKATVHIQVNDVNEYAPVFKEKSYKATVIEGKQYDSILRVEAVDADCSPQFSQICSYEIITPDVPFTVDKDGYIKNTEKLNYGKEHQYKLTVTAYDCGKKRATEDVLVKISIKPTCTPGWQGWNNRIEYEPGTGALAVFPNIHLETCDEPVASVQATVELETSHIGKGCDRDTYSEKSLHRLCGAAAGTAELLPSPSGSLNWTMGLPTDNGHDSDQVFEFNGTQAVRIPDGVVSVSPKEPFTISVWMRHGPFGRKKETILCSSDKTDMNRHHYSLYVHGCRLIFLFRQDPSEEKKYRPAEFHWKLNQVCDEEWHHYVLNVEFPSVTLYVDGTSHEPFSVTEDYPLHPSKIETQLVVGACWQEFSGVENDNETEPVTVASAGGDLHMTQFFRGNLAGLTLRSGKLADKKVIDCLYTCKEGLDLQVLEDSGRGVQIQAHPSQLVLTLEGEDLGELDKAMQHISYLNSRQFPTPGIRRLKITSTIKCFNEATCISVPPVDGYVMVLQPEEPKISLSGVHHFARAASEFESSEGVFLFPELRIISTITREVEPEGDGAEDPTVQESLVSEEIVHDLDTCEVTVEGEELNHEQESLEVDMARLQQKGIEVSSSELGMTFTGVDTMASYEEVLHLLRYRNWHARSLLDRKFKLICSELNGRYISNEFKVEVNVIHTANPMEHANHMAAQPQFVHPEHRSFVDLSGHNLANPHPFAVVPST

As for “fibrillin-1 fragment PF1 (from UniProt P35555 45-2731) (domain or fragment)”, the Kd came out at 240 nM.
